Results reported in patent US20140275490A1 (Astellas, published 2014).
Each block holds one binder with its values, some of them ahead of it.

Legend:
[1] = target: T1, human IL-23R-mouse Fc fusion protein (human; mouse, UniProt Q5VWK5 24-353); experiment: antigen ELISA, human IL-23R-Fc immobilized, HRP anti-mouse Ig, chemiluminescence
T1 construct: Expressed in FreeStyle 293 cells, purified; immobilized on the ELISA plate at 500 ng/mL; also called human IL-23R-Fc fusion protein; not shown: Fc region of mouse immunoglobulin (IgG2a) as encoded by the vector pFUSE-mIgG2A-Fc2 (InvivoGen); limits and any linker r
T1 sequence: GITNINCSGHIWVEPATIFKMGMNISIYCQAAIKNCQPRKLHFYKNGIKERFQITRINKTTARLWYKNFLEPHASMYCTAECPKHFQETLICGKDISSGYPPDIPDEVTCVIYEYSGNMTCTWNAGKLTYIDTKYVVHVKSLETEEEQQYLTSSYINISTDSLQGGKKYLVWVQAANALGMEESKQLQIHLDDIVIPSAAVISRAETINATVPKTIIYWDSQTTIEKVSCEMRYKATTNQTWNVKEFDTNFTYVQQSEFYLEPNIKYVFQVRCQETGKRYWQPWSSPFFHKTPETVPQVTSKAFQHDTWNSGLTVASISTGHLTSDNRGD
Method: (§1) The present inventors used an antigen ELISA to measure the antigen-specific binding activity of the antibody. The human or monkey IL-23R-Fc fusion protein was immobilized onto a Maxisorp 384-well plate (Nunc, Inc.) at a concentration of 500 ng/mL. A blocking agent (Blocking One; Nacalai Tesque, Inc.) was added thereto and allowed to stand at room temperature for 1 hour, followed by washing twice with a wash buffer [TPBS: a phosphate buffered saline (PBS) containing 0.05% Tween-20], and the purified antibody samples were suitably serially diluted and added thereto. Incubation was performed at room temperature for 1 hour, followed by washing four times with TPBS, and HRP-rabbit anti-mouse Ig antibody (DAKO) which was 2000-fold diluted with a dilution buffer was added. Incubation was performed at room temperature for 1 hour, followed by washing four times with a wash buffer. A BM-chemiluminescence ELISA substrate (POD) (Roche Diagnostics), which is a reagent for detecting chemical luminescence, was added, and the amount of chemiluminescence was measured with an EnVision counter (Perkin Elmer). Each antibody was tested in duplicate and the EC50 was analyzed by curve fitting. In this test, a fusion antibody obtained by replacing the Fc region of the known humanized anti-human IL-23R antibody hum20D7 (patent document 1) with the mouse Fc region (hereinafter referred to as hum20D7-mFc) was used as a comparative antibody. Also, the reason why the hum20D7 was fused with the mouse Fc region to prepare a fusion protein was to use anti-mouse Ig antibody as secondary antibody, and the mouse Fc region could be recognized by the anti-mouse Ig antibody, thereby rendering it possible to measure activity.

[2] = target: T2, monkey IL-23R-mouse Fc fusion protein (monkey; mouse); experiment: antigen ELISA, monkey IL-23R-Fc immobilized, HRP anti-mouse Ig, chemiluminescence
T2 construct: extracellular domain; also called monkey IL-23R-Fc fusion protein
Method: as §1

EC50 [1]: 0.023 µg/mL
EC50 [2]: 0.028 µg/mL
B1: 32-36 (chimeric) (antibody, V domains shown)
VH: QVQMVQSGAEVKRPGASVKVSCKVSGYTLNELGIHWVRQAPGKGLEWMGGFDPEHGKIIYAQRFQGRLTMPEDTSTDTAYMELSSLTSEDTAVYYCATVAAPLDYWGQGTLVTVSS
VL: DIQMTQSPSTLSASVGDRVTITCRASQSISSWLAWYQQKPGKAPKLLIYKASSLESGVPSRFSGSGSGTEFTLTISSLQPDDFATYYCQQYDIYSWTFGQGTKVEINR

EC50 [1]: 0.017 µg/mL
EC50 [2]: 0.013 µg/mL
B2: 34-58 (chimeric) (antibody, V domains shown)
VH: QVHLVQSGTEVRKPGASVKVSCKVSGYTLNELAIHWVRQAPGKGLEWMGGFDPEHGEIIYAQRFQGRITLPEDTSTDTAYMDLVNLRSEDTAVYFCTTEAAPFDYWGQGSLVIVSS
VL: DIQMTQSPSTLSASVGDRVTITCRASQSLSNWLAWYQQKPGKAPKLLIYKASSLESGVPSRFSGSGSGTDFTLTISGLQPDDFATYYCQQYDIYPRTFGQGTKVEIKR
